Measurements from article PMC4527729, “The Inner Membrane Protein PilG Interacts with DNA and the Secretin PilQ in Transformation”.

Assays:
[1] = target: PilG FL (Neisseria meningitidis MC58) (UniProt Q7DDR1); assay: EMSA; conditions: Optimized EMSA: 50 mM HEPES pH 7.5, 100 mM NaCl, 5 mM MgCl2, 1 mM DTT, 10% glycerol, 0.05% DDM, on ice 15 min, 0.45 nM DNA; first EMSA: 25 mM NaH2PO4 pH 8.0 …
PilG FL [2] = target: T1, PilG FL (Neisseria meningitidis MC58, UniProt Q7DDR1 1-410); assay: South-western; Optimized EMSA: 50 mM HEPES pH 7.5, 100 mM NaCl, 5 mM MgCl2, 1 mM DTT, 10% glycerol, 0.05% DDM, on ice 15 min, 0.45 nM DNA; first EMSA: 25 mM NaH2PO4 pH 8.0, 150 mM NaCl, 1 mM DTT, 10% glycerol, 0.05% DDM, on ice; conditions: protein: recombinant, tags: C-terminal 6xHis, label: 32P end label
PilG1-178 [3] = target: T2, PilG1-178 (Neisseria meningitidis MC58, UniProt Q7DDR1 1-178); assay: as above; conditions: protein: recombinant, tags: C-terminal 6xHis, label: 32P end label
PilG257-410 = PilG257-410 (Neisseria meningitidis MC58, UniProt Q7DDR1 257-410); assay: as above; conditions: protein: recombinant, tags: C-terminal 6xHis, label: 32P end label
PilG30-80 = PilG30-80 (Neisseria meningitidis MC58, UniProt Q7DDR1 30-80); assay: as above; conditions: protein: recombinant, tags: C-terminal 6xHis, label: 32P end label
PilG166-410 = PilG166-410 (Neisseria meningitidis MC58, UniProt Q7DDR1 166-410); assay: as above; conditions: protein: recombinant, tags: C-terminal 6xHis, label: 32P end label
PilG1-60 = PilG1-60 (Neisseria meningitidis MC58, UniProt Q7DDR1 1-60); assay: as above; conditions: protein: recombinant, tags: C-terminal 6xHis, label: 32P end label
PilG1-80 = PilG1-80 (Neisseria meningitidis MC58, UniProt Q7DDR1 1-80); assay: as above; conditions: protein: recombinant, tags: C-terminal 6xHis, label: 32P end label
PilG1-140 = PilG1-140 (Neisseria meningitidis MC58, UniProt Q7DDR1 1-140); assay: as above; conditions: protein: recombinant, tags: C-terminal 6xHis, label: 32P end label
PilG1-256 = PilG1-256 (Neisseria meningitidis MC58, UniProt Q7DDR1 1-256); assay: as above; conditions: protein: recombinant, tags: C-terminal 6xHis, label: 32P end label
PilG Q55A = PilG Q55A (Neisseria meningitidis MC58, UniProt Q7DDR1 1-410, Q55A); assay: South-western; same as FL; Optimized EMSA: 50 mM HEPES pH 7.5, 100 mM NaCl, 5 mM MgCl2, 1 mM DTT, 10% glycerol, 0.05% DDM, on ice 15 min, 0.45 nM DNA; first EMSA: 25 mM NaH2PO4 pH 8.0, 150 mM NaCl, 1 mM DTT, 10% glycerol, 0.05% DDM, on ice; conditions: protein: recombinant; tags: C-terminal 6xHis; label: 32P end label
PilG SS62-63AA = PilG SS62-63AA (Neisseria meningitidis MC58, UniProt Q7DDR1 1-410, S62A;S63A); assay: as above; conditions: protein: recombinant; tags: C-terminal 6xHis; label: 32P end label
PilG EEE39-41AAA [4] = target: T3, PilG EEE39-41AAA (Neisseria meningitidis MC58, UniProt Q7DDR1 1-410, E39A;E40A;E41A); assay: South-western; increased vs FL per text; Optimized EMSA: 50 mM HEPES pH 7.5, 100 mM NaCl, 5 mM MgCl2, 1 mM DTT, 10% glycerol, 0.05% DDM, on ice 15 min, 0.45 nM DNA; first EMSA: 25 mM NaH2PO4 pH 8.0, 150 mM NaCl, 1 mM DTT, 10% glycerol, 0.05% DDM, on ice; conditions: protein: recombinant; tags: C-terminal 6xHis; label: 32P end label
PilG1-178 [5] = target: T2, PilG1-178; assay: EMSA; 5 mM MgCl2; Optimized EMSA: 50 mM HEPES pH 7.5, 100 mM NaCl, 5 mM MgCl2, 1 mM DTT, 10% glycerol, 0.05% DDM, on ice 15 min, 0.45 nM DNA; first EMSA: 25 mM NaH2PO4 pH 8.0, 150 mM NaCl, 1 mM DTT, 10% glycerol, 0.05% DDM, on ice; conditions: protein: recombinant; tags: C-terminal 6xHis; label: 32P end label; blunt
PilG EEE39-41AAA [6] = target: T3, PilG EEE39-41AAA; assay: South-western; increased vs FL; Optimized EMSA: 50 mM HEPES pH 7.5, 100 mM NaCl, 5 mM MgCl2, 1 mM DTT, 10% glycerol, 0.05% DDM, on ice 15 min, 0.45 nM DNA; first EMSA: 25 mM NaH2PO4 pH 8.0, 150 mM NaCl, 1 mM DTT, 10% glycerol, 0.05% DDM, on ice; conditions: protein: recombinant; tags: C-terminal 6xHis; label: 32P end label
PilG FL [7] = target: T1, PilG FL; assay: EMSA; optimized EMSA; R2 0.91?; Optimized EMSA: 50 mM HEPES pH 7.5, 100 mM NaCl, 5 mM MgCl2, 1 mM DTT, 10% glycerol, 0.05% DDM, on ice 15 min, 0.45 nM DNA; first EMSA: 25 mM NaH2PO4 pH 8.0, 150 mM NaCl, 1 mM DTT, 10% glycerol, 0.05% DDM, on ice; conditions: protein: recombinant; tags: C-terminal 6xHis; label: 32P end label
PilG RKK43-45AAA = PilG RKK43-45AAA (Neisseria meningitidis MC58, UniProt Q7DDR1 1-410, R43A;K44A;K45A); assay: EMSA; extrapolated; about 50% bound at 5 uM per text; Optimized EMSA: 50 mM HEPES pH 7.5, 100 mM NaCl, 5 mM MgCl2, 1 mM DTT, 10% glycerol, 0.05% DDM, on ice 15 min, 0.45 nM DNA; first EMSA: 25 mM NaH2PO4 pH 8.0, 150 mM NaCl, 1 mM DTT, 10% glycerol, 0.05% DDM, on ice; conditions: protein: recombinant; tags: C-terminal 6xHis; label: 32P end label

52 bp dsDNA, S3 Fig
Kd [1]: 300 nM

B1: T3 (ssDNA)
DNA: CAACAACAACAACAGGCCTGTCATCCAAAATGACAGGCCAACAACAACAACA
binding result (PilG FL [2]): binds | binding result (PilG1-178 [3]): binds | binding result (PilG257-410): no binding | binding result (PilG30-80): no binding | binding result (PilG166-410): no binding | binding result (PilG1-60): no binding | binding result (PilG1-80): binds | binding result (PilG1-140): binds | binding result (PilG1-256): binds

B2: T3T4 (dsDNA)
DNA 1: CAACAACAACAACAGGCCTGTCATCCAAAATGACAGGCCAACAACAACAACA
DNA 2: TGTTGTTGTTGTTGGCCTGTCATTTTGGATGACAGGCCTGTTGTTGTTGTTG
binding result (PilG FL [2]; blunt): binds | binding result (PilG1-178 [3]; blunt): binds | binding result (PilG257-410; blunt): no binding | binding result (PilG30-80; blunt): no binding | binding result (PilG166-410; blunt): no binding | binding result (PilG1-60; blunt): no binding | binding result (PilG1-80; blunt): binds | binding result (PilG1-140; blunt): binds | binding result (PilG1-256; blunt): binds

B3: T1 (ssDNA)
DNA: CAACAACAACAACAGCCGTCTGAACCAAATTCAGACGGCAACAACAACAACA
binding result (PilG Q55A): binds | binding result (PilG SS62-63AA): binds | binding result (PilG FL [2]): binds | binding result (PilG1-178 [3]): binds | binding result (PilG257-410): no binding | binding result (PilG30-80): no binding | binding result (PilG166-410): no binding | binding result (PilG1-60): no binding | binding result (PilG1-80): binds | binding result (PilG1-140): binds | binding result (PilG1-256): binds | binding result (PilG EEE39-41AAA [4]): binds

B4: T1T2 (dsDNA)
DNA 1: CAACAACAACAACAGCCGTCTGAACCAAATTCAGACGGCAACAACAACAACA
DNA 2: TGTTGTTGTTGTTGCCGTCTGAATTTGGTTCAGACGGCTGTTGTTGTTGTTG
binding result (PilG FL [2]; blunt): binds | binding result (PilG1-178 [3]; blunt): binds | binding result (PilG257-410; blunt): no binding | binding result (PilG30-80; blunt): no binding | binding result (PilG166-410; blunt): no binding | binding result (PilG1-60; blunt): no binding | binding result (PilG1-80; blunt): binds | binding result (PilG1-140; blunt): binds | binding result (PilG1-256; blunt): binds

B5: HH10HH11 (dsDNA DUS-) (dsDNA)
DNA 1: AACAACAACAAAAGGCCTGTCATCCAACTTCCGGACAGTAAACAACAACAAC
DNA 2: GTTGTTGTTGTTTACTGTCCGGAAGTTGGATGACAGGCCTTTTGTTGTTGTT
apparent K (half saturation) (PilG1-178 [5]): 269 nM

B6: HH9 (ssDNA)
DNA: GTTGTTGTTGTTATGCCGTCTGAAGTTGGATGCCGTCTGAATTGTTGTTGTT
binding result (PilG Q55A): binds | binding result (PilG SS62-63AA): binds | binding result (PilG FL [2]): binds | binding result (PilG1-178 [3]): binds | binding result (PilG257-410): no binding | binding result (PilG30-80): no binding | binding result (PilG166-410): no binding | binding result (PilG1-60): no binding | binding result (PilG1-80): binds | binding result (PilG1-140): binds | binding result (PilG1-256): binds | binding result (PilG EEE39-41AAA [6]): binds

B7: HH8 (ssDNA)
DNA: GTTGTTGTTGTTTTCAGACGGCATGTTGGTTCAGACGGCATTTGTTGTTGTT
binding result (PilG257-410): no binding | binding result (PilG30-80): no binding | binding result (PilG166-410): no binding | binding result (PilG1-60): no binding | apparent K (half saturation) (PilG FL [7]): 1160 nM | binding result (PilG EEE39-41AAA [4]): binds | apparent K (half saturation) (PilG RKK43-45AAA): ~15.7 mM
